Test results taken from patent CN117186235A (SHANGHAI HUAIYUE BIOLOGICAL TECH CO LTD, dated 2023).

Assays:
[1] = molecular target: T1, 人4-1BB-hFc蛋白 (human, UniProt Q07011 24-186); assay: ELISA, plate coated with human 4-1BB-hFc at 1.0 μg/mL, HRP secondary antibody
T1 construct: extracellular domain; The coated protein of the ELISA is called 人4-1BB-hFc蛋白; also called h4-1BB蛋白; 4-1BB重组蛋白; not shown: human IgG Fc fragment (hFc) of the pCpC vector

[2] = molecular target: T2, 人4-1BB (CHO-K1细胞表面表达) (human, UniProt Q07011 24-255); assay: FACS on CHO-K1 cells expressing human 4-1BB, FITC anti-human IgG Fc
T2 construct: whole, on cells; Stably expressed on CHO-K1 cells for FACS; also called h4-1BB; CHO-K1-h4-1BB

[3] = molecular target: T3, 人源EGFRvIII (CHO-K1细胞表面表达) (human, UniProt P00533 25-1210); assay: FACS on CHO-K1 cells expressing human EGFRvIII, FITC anti-human IgG Fc
T3 construct: whole, on cells; Stably expressed on CHO-K1 cells; It is a deletion variant of EGFR and not the wild type; also called hEGFRvIII; CHO-K1-hEGFRvIII

T2 sequence (Q07011 24-255): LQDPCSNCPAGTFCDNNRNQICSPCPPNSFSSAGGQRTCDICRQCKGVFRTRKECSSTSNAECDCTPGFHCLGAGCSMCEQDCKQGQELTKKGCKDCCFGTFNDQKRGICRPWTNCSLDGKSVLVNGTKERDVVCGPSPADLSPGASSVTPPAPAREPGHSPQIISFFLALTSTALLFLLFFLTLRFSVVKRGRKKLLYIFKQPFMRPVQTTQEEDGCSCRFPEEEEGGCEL

binding result [1]	binding result [2]	binding result [3]	Binder
binds	–	–	抗4-1BB抗体PE0116全长抗体 (antibody, V domains shown, Fully human antibody from Harbour transgenic mice; the bispecific uses it as IgG4; also called HY0101; PE0016) VH: QVQLVESGGGVVQPGRSLRLSCAASGLTFSSYGMHWVRQAPGKGLEWVAVIWYDGSNKYYADSVKGRFTISRDNSKNTLYLQMNSLRAEDTAVYYCAREEVLWFGELSYNYYYGMDVWGQGTTVTVSS VL: DIQMTQSPSSLSASVGDRVTITCRASQGISNYLAWYQQKPGKVPKLLIYAASTLQSGVPSRFSGSGSGTDFTLTISSLQPEDVATYYCQKYNSVPLTFGGGTKVEIK
–	binds	binds	抗4-1BB/抗EGFRvIII双特异抗体HY1001007 (bispecific antibody, IgG4, IgG-scFv format: PE0116 IgG4 with the 043-1 VL-VH scFv fused to the C-terminus of the heavy chain (PE0116VH-CH-043-1VLVH); also called CH-scFv(043-1VLVH)-IgG4(PE0116); not shown: human IgG4 heavy chain constant region (from the expression vector); human light chain constant region of the expression vector; kappa or lambda not) heavy (part 1 of 2): QVQLVESGGGVVQPGRSLRLSCAASGLTFSSYGMHWVRQAPGKGLEWVAVIWYDGSNKYYADSVKGRFTISRDNSKNTLYLQMNSLRAEDTAVYYCAREEVLWFGELSYNYYYGMDVWGQGTTVTVSS heavy (part 2 of 2): GGGGSGGGGSGGGGSEIVLTQSPATLSLSPGERATLSCRASSSVSSSYLHWYQQKPGQAPRLLIYSTSNLAAGIPARFSGSGSGTDFTLTISSLEPEDFAVYYCQQYSGYPLTFGGGTKVEIKGGGGSGGGGSGGGGSQVQLVQSGAEVKKPGASVKVSCKASGYTFTDYNMDWVRQAPGQGLEWMGDINPNNADTIYNQKFKGRVTMTRDTSTSTVYMELSSLRSEDTAVYYCARGDYDGYYPVYYAMDYWGQGTTVTVSS light: DIQMTQSPSSLSASVGDRVTITCRASQGISNYLAWYQQKPGKVPKLLIYAASTLQSGVPSRFSGSGSGTDFTLTISSLQPEDVATYYCQKYNSVPLTFGGGTKVEIK
